# Laboratory results published in paper PMC12186257, “Serendipitous and Systematic Chemoproteomic Discovery of MBLAC2, HINT1, and NME1‑4 Inhibitors from Histone Deacetylase-Targeting Pharmacophores” (ACS Chemical Biology, 2025).
# B1: recombinant HINT1 (hHint1) (Homo sapiens) (protein)
# chain: MADEIAKAQVARPGGDTIFGKIIRKEIPAKIIFEDDRCLAFHDISPQAPTHFLVIPKKHISQISVAEDDDESLLGHLMIVGKKCAADLGLNKGYRMVVNEGSDGGQSVYHVHLHVLGGRQMHWPPG
# Substrate: Nc1ncnc2c1ncn2[C@@H]1O[C@H](COP(=O)(O)NCCc2c[nH]c3ccccc23)[C@@H](O)[C@H]1O
# Test: HINT1 enzyme activity assay (TrpA hydrolysis, fluorescence)
# Format: biochemical, human
# Conditions: other: substrate of hHint1
# Text: While the biologically relevant substrates of HINT1 have not been clearly elucidated, the protein has been implicated in opioid receptor signaling, − regulation of the melanoma-associated transcription factor MITF, , and DNA damage repair. These functions position HINT1 as a potential pharmacological target for treating conditions such as opioid resistance or melanoma. The only reported HINT1-targeting pharmacophores are nucleoside-based nonhydrolyzable substrate analogs, such as the carbamate TrpGC (Figure a). , We evaluated the inhibitory potential of KV-24 and KV-30 in enzyme activity assays using recombinant HINT1. […]
# Mouse brain proteomics – LC-MS/MS. […] 10 µg of peptide mix was injected and analyzed using a 58 min gradient starting at 1% B up to 45% B (1 h method). […]
# Mouse proteomics data analysis. The data files were analyzed with DIA-NN 1.8.1. […] The resulting protein group tables were further analyzed by Perseus 1.6.2.2. […]
# CME of transferrin and confocal microscopy analyses.For transferrin uptake experiments HeLa cells were seeded on Matrigel-coated coverslips, and incubated with 0.1 % DMSO, or with 100 µM dynasore, 20 µM KV50, 2 µM KV65, or 2 µM KV79 in media containing 10% FCS at 37°C for 20 h. […] All inhibitor treatments were performed in duplicate, to enable quantification of surface levels of transferrin receptors, and to assess the capability of transferrin receptor endocytosis. […]
protein,measurement,value
B1,Km,0.139 µM
